The target of the assay is T1, mouse IL-4Rα (mouse, UniProt P16382 26-233, limits assumed).
T1 construct: also called mouse IL-4Rα protein; mIL-4Rα
T1 sequence (looked up): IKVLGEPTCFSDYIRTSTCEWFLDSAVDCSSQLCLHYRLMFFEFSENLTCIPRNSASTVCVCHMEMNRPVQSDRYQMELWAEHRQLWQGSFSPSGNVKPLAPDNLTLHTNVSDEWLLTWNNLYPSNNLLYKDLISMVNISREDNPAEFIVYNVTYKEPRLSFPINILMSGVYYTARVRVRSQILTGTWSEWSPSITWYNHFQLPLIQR
Nature of the assay: not described (stated in Materials and Methods of Example 4).

Here are results for one molecule from patent publication US20140056920A1 (Sanofi, published 2014).

B1: mAb1 (human anti-IL-4R antibody H1H098-b) (antibody, V domains shown)
VH: EVQLVESGGGLEQPGGSLRLSCAGSGFTFRDYAMTWVRQAPGKGLEWVSSISGSGGNTYYADSVKGRFTISRDNSKNTLYLQMNSLRAEDTAVYYCAKDRLSITIRPRYYGLDVWGQGTTVTVS
VL: DIVMTQSPLSLPVTPGEPASISCRSSQSLLYSIGYNYLDWYLQKSGQSPQLLIYLGSNRASGVPDRFSGSGSGTDFTLKISRVEAEDVGFYYCMQALQTPYTFGQGTKLEIK
notes: also called anti-IL-4R antibody mAb1; REGN668/SAR231893
Regarding B1, the binding result is “no binding”.
